Here are results for 3 substances from patent US20140295520A1.

Series [1] addresses EutMNLK (EutM, EutN, EutL and EutK co-expressed without EutS) (Salmonella enterica LT2). The series can be described thus: cell-based or functional assay.
Series [2] addresses EutS (recombinant EutS shell/compartment) (Salmonella enterica LT2) (UniProt Q9ZFV7). The series can be described thus: cell-based or functional assay.
In series [3] the target is EutS-G39V mutant (Salmonella enterica LT2). Description: cell-based or functional assay.
Series [4] has as its target EutSMNLK (recombinant shell of EutS, EutM, EutN, EutL and EutK) (Salmonella enterica LT2) (UniProt Q9ZFV7). Description: cell-based or functional assay.
Series [5] deals with EutS (recombinant EutS shell/compartment).

On to “Enhanced Green Fluorescent Protein (EGFP)”, for which the % cells with green flourescent foci (E. coli C2566) in series [1] was determined as 0.1%; in series [2], 0.5%; in series [3] it was 0.3%; in series [4] it was 0.2%. Besides, the % cells with green flourescent foci (E. coli JM109) turned out to be 0.8% in series [1], 0.6% in series [2], 2.9% in series [3] and 1.8% in series [4].

As for “EutC^1-19-BTL-2 fused to EGFP (modular cassette)”, the “fluorescent localization in E. coli” value in series [5] is “Upon co-expression of EutS, the majority of the tagged lipase localizes to a compartment formed somewhat off-center in E. coli”.

For the substance EutC^1-19-EGFP, the % cells with green flourescent foci (E. coli C2566) in series [2] worked out at 87%; in series [4] it was 84%. Besides, the % cells with green flourescent foci (E. coli JM109) in series [2] was 84%; in series [4], 79%.
